Measured values as given in PMC12947556.

What was measured:
[1] = target: ([H3K4me3K27me3]2) homotypic nucleosome; assay: Captify Luminex bead-based binding assay; GST-PtSHL titrated to a multiplex panel of PTM-defined homotypic and heterotypic nucleosomes; median fluorescence intensity; EC50^rel
[2] = target: ([H3.2]·[H3.2K4me3K27me3]) heterotypic nucleosome (UniProt Q71DI3); assay: as above

fold preference over nucleosomes with each comprising PTM [1]: > 150 fold | fold preference over ([H3.2K4me3]·[H3.2K27me3]) or its comprising PTMs [2]: > 350 fold
Substance: GST-PtSHL BAH-PHD (domain or fragment)
